Laboratory results published in US20110129854A1.

Key:
[1] = molecular target: human cardiac troponin-I-T-C complex (human) (UniProt P63316); experiment: sandwich chemiluminescent immunoassay (…); detection 7G7 conjugate, capture M8020207 microparticles; human plasma spiked with cTnITC, nominal 42 pM cTnT as labelled in the table
[2] = molecular target: human cardiac troponin-I-T-C complex (human) (UniProt P63316); experiment: sandwich chemiluminescent immunoassay (…); detection 7G7 conjugate, capture M8020207 microparticles; human plasma spiked with cTnITC, nominal 7 pM cTnT
[3] = molecular target: human cardiac troponin-I-T-C complex (human) (UniProt P63316); experiment: sandwich chemiluminescent immunoassay (…); detection 7G7 conjugate 30 ng/mL, capture M8020207 microparticles; cTnITC standard, 7 pM cTnT
[4] = molecular target: Cardiac troponin-T (human) (UniProt P45379); experiment: sandwich chemiluminescent immunoassay (…); detection 7G7 conjugate, capture 1C11 microparticles; cTnT 0 ug/mL (blank)
[5] = molecular target: Cardiac troponin-T (human) (UniProt P45379); experiment: sandwich chemiluminescent immunoassay (…); detection 7G7 conjugate, capture 1C11 microparticles; cTnT 0.25 ug/mL
[6] = molecular target: Cardiac troponin-T (human) (UniProt P45379); experiment: sandwich chemiluminescent immunoassay (…); detection 7G7 conjugate, capture 7F4 microparticles; cTnT 0 ug/mL (blank)
[7] = molecular target: human cardiac troponin-I-T-C complex (human) (UniProt P63316); experiment: sandwich chemiluminescent immunoassay (…); detection 7G7 conjugate 30 ng/mL, capture M8020207 microparticles; cTnITC standard, 279 pM cTnT
[8] = molecular target: Cardiac troponin-T (human) (UniProt P45379); experiment: sandwich chemiluminescent immunoassay (…); detection 7G7 conjugate, capture 1C11 microparticles; cTnT 2 ug/mL
[9] = molecular target: Cardiac troponin-T (human) (UniProt P45379); experiment: sandwich chemiluminescent immunoassay (…); detection 7G7 conjugate, capture 1C11 microparticles; cTnT 1 ug/mL
[10] = molecular target: Cardiac troponin-T (human) (UniProt P45379); experiment: sandwich chemiluminescent immunoassay (…); detection 7G7 conjugate, capture M8020207 microparticles; cTnT 0.25 ug/mL
[11] = molecular target: Cardiac troponin-T (human) (UniProt P45379); experiment: sandwich chemiluminescent immunoassay (…); detection 7G7 conjugate, capture 7F4 microparticles; cTnT 1 ug/mL
[12] = molecular target: Cardiac troponin-T (human) (UniProt P45379); experiment: sandwich chemiluminescent immunoassay (…); detection 7G7 conjugate, capture 7F4 microparticles; cTnT 0.5 ug/mL
[13] = molecular target: Cardiac troponin-T (human) (UniProt P45379); experiment: sandwich chemiluminescent immunoassay (…); detection 7G7 conjugate, capture 7F4 microparticles; cTnT 2 ug/mL
[14] = molecular target: human cardiac troponin-I-T-C complex (human) (UniProt P63316); experiment: sandwich chemiluminescent immunoassay (…); detection 7G7 conjugate 30 ng/mL, capture M8020207 microparticles; cTnITC standard, 14 pM cTnT
[15] = molecular target: human cardiac troponin-I-T-C complex (human) (UniProt P63316); experiment: sandwich chemiluminescent immunoassay (…); detection 7G7 conjugate 30 ng/mL, capture M8020207 microparticles; cTnITC standard, 0 pM cTnT (blank)
[16] = molecular target: Cardiac troponin-T (human) (UniProt P45379); experiment: sandwich chemiluminescent immunoassay (…); detection 7G7 conjugate, capture M8020207 microparticles; cTnT 2 ug/mL
[17] = molecular target: human cardiac troponin-I-T-C complex (human) (UniProt P63316); experiment: sandwich chemiluminescent immunoassay (…); detection 7G7 conjugate, capture M8020207 microparticles; negative human plasma without spiked cTnITC (blank)
[18] = molecular target: human cardiac troponin-I-T-C complex (human) (UniProt P63316); experiment: sandwich chemiluminescent immunoassay (…); detection 7G7 conjugate 30 ng/mL, capture M8020207 microparticles; cTnITC standard, 42 pM cTnT
[19] = molecular target: Cardiac troponin-T (human) (UniProt P45379); experiment: sandwich chemiluminescent immunoassay (…); detection 7G7 conjugate, capture 1C11 microparticles; cTnT 0.5 ug/mL
[20] = molecular target: Cardiac troponin-T (human) (UniProt P45379); experiment: sandwich chemiluminescent immunoassay (…); detection 7G7 conjugate, capture M8020207 microparticles; cTnT 0.5 ug/mL
[21] = molecular target: Cardiac troponin-T (human) (UniProt P45379); experiment: sandwich chemiluminescent immunoassay (…); detection 7G7 conjugate, capture M8020207 microparticles; cTnT 1 ug/mL
[22] = molecular target: Cardiac troponin-T (human) (UniProt P45379); experiment: sandwich chemiluminescent immunoassay (…); detection 7G7 conjugate, capture M8020207 microparticles; cTnT 0 ug/mL (blank)
[23] = molecular target: Cardiac troponin-T (human) (UniProt P45379); experiment: sandwich chemiluminescent immunoassay (…); detection 7G7 conjugate, capture 7F4 microparticles; cTnT 0.25 ug/mL

RLU [1]: 74100 RLU
RLU [2]: 13800 RLU
RLU [3]: 15300 RLU
RLU [4]: 317 RLU
RLU [5]: 79400 RLU
RLU [6]: 333 RLU
RLU [7]: 423000 RLU
RLU [8]: 311000 RLU
RLU [9]: 238000 RLU
RLU [10]: 96200 RLU
RLU [11]: 29900 RLU
RLU [12]: 17200 RLU
RLU [13]: 46800 RLU
RLU [14]: 28100 RLU
RLU [15]: 2370 RLU
RLU [16]: 305000 RLU
RLU [17]: 2070 RLU
RLU [18]: 81500 RLU
RLU [19]: 149000 RLU
RLU [20]: 164000 RLU
RLU [21]: 251000 RLU
RLU [22]: 338 RLU
RLU [23]: 9080 RLU
Substance: Murine anti-cardiac troponin-T 7G7 acridinium-9-carboxamide conjugate (antibody)
